Laboratory results reported in publication PMC9106845 (2022).

Molecular target: T1, A02_YLQ peptide on HLA-A*02:01 (human)
T1 peptide: YLQPRTFLL
Assay: multimer staining

B1: 839 (TCR)
alpha TRAV12-1 TRAJ47 CDR3: CVVNRADKLVF
beta TRBV7-9 TRBJ2-2 CDR3: CASSDANTGELFF
  binding result: recognises
